Assay results reported in patent publication US20150250848A1 (TRUSTEES OF DARTMOUTH COLLEGE, published 2015).
Values belong to the binder of their own block, whether it stands above or below them. Where no end group is shown, it is not given here. [ ]: non-standard residue; d: D form. The star is where a group is joined. Biotin = O=C1N[C@H]2[C@H](CS[C@H]2CCCCC(=O)*)N1; Ahx = NCCCCCC(=O)O

Key:
[1] = biological target: T1, Tax-interacting protein-1 (TIP-1), recombinant, tag cleaved (UniProt O14907 1-124); assay: FP displacement assay, reporter F*-iCAL36
T1 construct: Used for FP and crystallization; also called TIP-1 PDZ domain
T1 sequence (looked up): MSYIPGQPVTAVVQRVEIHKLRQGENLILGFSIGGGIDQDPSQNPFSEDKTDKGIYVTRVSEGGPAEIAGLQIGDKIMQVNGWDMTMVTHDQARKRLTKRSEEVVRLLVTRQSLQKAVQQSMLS

CAL PDZ domain (CALP) [2] = biological target: T2, CAL PDZ domain (CALP) (UniProt Q9HD26 278-362); assay: calculated from Ki values (FP); reference: the same peptide with N2P2
CAL PDZ domain (CALP) [3] = biological target: T2, CAL PDZ domain (CALP); assay: calculated from Ki values (FP); reference: the same peptide with TIP-1
CAL PDZ domain (CALP) [4] = biological target: T2, CAL PDZ domain (CALP); assay: calculated from Ki values (FP); reference: the same peptide with the NHERF PDZ domains
CAL PDZ domain (CALP) [5] = biological target: T2, CAL PDZ domain (CALP); assay: fluorescence polarization; reference: iCAL42 with the CAL PDZ domain
[6] = biological target: T1, Tax-interacting protein-1 (TIP-1), …; assay: FP displacement assay
Description: (§1) For TIP-1 peptide array experiments, His₁₀ tagged (uncleaved) protein was used to facilitate quantitation.
In order to quantitate the impact of the P⁻⁵ Leu substitution and to assess inhibitory potential at high peptide concentrations, FP displacement assays were performed.

[7] = biological target: T3, His10 tagged (uncleaved) TIP-1 (UniProt O14907 1-124); assay: CombLib peptide array
T3 construct: also called TIP-1 (peptide array experiments); not shown: N-terminal His10 tag
T3 sequence: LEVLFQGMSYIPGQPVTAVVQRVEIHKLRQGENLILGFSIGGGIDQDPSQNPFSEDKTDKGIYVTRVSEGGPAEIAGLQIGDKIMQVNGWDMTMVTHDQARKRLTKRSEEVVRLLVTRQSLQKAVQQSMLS
From the text: as §1

CAL PDZ domain (CALP) [8] = biological target: T2, CAL PDZ domain (CALP); assay: calculated from Ki values (FP); reference: the same peptide with the highest affinity alternative among the NHERF and TIP-1 PDZ domains
CAL PDZ domain (CALP) [9] = biological target: T2, CAL PDZ domain (CALP); assay: FP competition assay
CAL PDZ domain (CALP) [10] = biological target: T2, CAL PDZ domain (CALP); assay: fluorescence polarization competition; reference: iCAL35 with CAL
Description: (§2) The experimental inhibitory constants of top- and poorly-ranked peptide sequences from the K* CAL-CFTR design were experimentally determined. […] The corresponding N-terminally acetylated peptides were purchased from NEO Bio-Science (Cambridge, Mass.) and the Kᵢ values for the peptides were detected using fluorescence polarization. Briefly, the CAL PDZ domain was incubated with a labeled peptide of known binding affinity. Each peptide inhibitor was serially diluted and the protein-peptide mixture was added to each dilution. Finally, the amount of competitive inhibition was tracked using residual fluorescence polarization.
(§3) The Kᵢ value for each peptide hexamer was determined using fluorescence polarization.

CAL PDZ domain (CALP) [11] = biological target: T2, CAL PDZ domain (CALP); assay: fluorescence polarization competition; reference: wild-type CFTR sequence with CAL
Description: as §2, §3

CAL PDZ domain (CALP) [12] = biological target: T2, CAL PDZ domain (CALP); assay: fluorescence polarization competition with a labeled peptide
Description: as §2, §3

CAL PDZ domain (CALP) [13] = biological target: T2, CAL PDZ domain (CALP); assay: fluorescence polarization competition

Binder: ANSRWPTSII (also called PRC 36; iCa136) [iCAL36]
ΔΔG (CAL PDZ domain (CALP) [3]): 1 kcal/mol | ΔΔG (CAL PDZ domain (CALP) [4]): -3.3 kcal/mol

B1: F*-iCAL42 (peptide)
peptide: {Fluorescein-Ahx}-ANSRLPTSII
notes: also called N-terminally fluoresceinated version of iCAL42
fold enhancement in CAL affinity (CAL PDZ domain (CALP) [5]): 5 fold

Binder: ANSRAPTSII [P^-5 alanine mutant of iCAL36 (ANSRAPTSII)]
binding result [6]: no binding

B2: BT-iCAL42 (peptide)
peptide: Biotin-W[dR]FKKANSRLPTSII
notes: also called biotinylated analog of iCAL42
Ki (CAL PDZ domain (CALP) [9]): 9.2 µM

Binder: Ac-WQVTRV (also called WQVTRV) [kCAL01]
fold improvement over iCAL35 (CAL PDZ domain (CALP) [10]): 7 fold | fold higher affinity (CAL PDZ domain (CALP) [11]): 331 fold | Ki (CAL PDZ domain (CALP) [12]): 2.1 µM

B3: iCAL35 (peptide)
peptide: Ac-WQTSII
notes: the corresponding N-terminally acetylated peptides were bought; also called WQTSII; best known peptide hexamer
Ki (CAL PDZ domain (CALP) [13]): 14.8 µM

Further lines, with some results ahead:

Ki [1]: 130 µM | ΔΔGCAL-best (CAL PDZ domain (CALP) [2]): 0.1 kcal/mol
Binder: ANGLMQTSKL [somatostatin receptor subtype 5 (SSR5) C-terminal peptide]

binding result [7]: no binding | ΔΔG (CAL PDZ domain (CALP) [8]): -2.5 kcal/mol
Binder: ANSRLPTSII (also called unlabeled iCAL42) [iCAL42]
binding result [6]: no binding (tested: up to millimolar peptide concentrations)
